The experiment concerns the target adenosine A2A receptor (Homo sapiens, UniProt P29274). The experiment in a line: LANCE allosteric cAMP assay: titrated IgG, then fixed NECA concentration. The following applies: Table 12. Format: cell-based. The procedure: A2A-1 and A2A-9 were assayed for allosteric modulation.
A2A-9 was assayed as described in Example 16.
On the technique in general: TR-FRET usually uses a lanthanide donor and a delayed reading to cut background.

adenosine A2A receptor, sequence (P29274 whole entry): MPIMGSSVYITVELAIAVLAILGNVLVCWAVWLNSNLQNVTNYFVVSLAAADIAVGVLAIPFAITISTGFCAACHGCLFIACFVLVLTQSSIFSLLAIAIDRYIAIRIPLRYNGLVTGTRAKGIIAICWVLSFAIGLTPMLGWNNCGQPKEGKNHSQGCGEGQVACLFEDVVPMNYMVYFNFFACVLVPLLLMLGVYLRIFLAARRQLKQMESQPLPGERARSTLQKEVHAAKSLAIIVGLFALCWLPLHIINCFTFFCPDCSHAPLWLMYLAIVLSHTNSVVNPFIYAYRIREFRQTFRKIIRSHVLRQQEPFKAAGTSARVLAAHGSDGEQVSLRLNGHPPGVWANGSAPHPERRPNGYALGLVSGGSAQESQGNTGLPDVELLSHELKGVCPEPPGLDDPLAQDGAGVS

B1: A2A-9: A2AR variant immunoglobulin, CDRH1-3 SEQ ID NOs 14/103/192 (antibody, V domains shown)
VH: EVQLQQSGPGLVKPSQSLSLTCSVTGYSITSGYYWNWIRQFPGKKLEWMGYIRYDGSNNYNPSLKNRISITRDTSKNQFFLKLNSVTTDDTATYYCARVHHYYGSSYFDYWGQGTTLTVSS
VL: DIVMTQSQKFMSTSVGDRVSATCKASQNVGSSVAWFQQKPGQSPKALIYSTSYRYSGVPDRFTGSGSGTDFTLTISNVQSEDLAEYFCQQYNSYPLTFGAGTKLEIK
As to B1, the “Functional classification, Example 18” value is on record as “antagonist”.

For the origin of these results see patent publication US12570750B2, “Antibodies that bind adenosine A2A receptors and methods of use thereof to treat cancer and neurological diseases” (Twist Bioscience Corporation, priority 2019, dated 2026).
